In patent WO2017205216A1 (dated 2017):

Target: T1, murine PD-L1 (murine, UniProt Q9EP73 19-238, limits assumed)
T1 construct: also called PD-Ll; mouse target protein
Assay: not described; stated in Example 1

T1 sequence (Q9EP73 19-238 limits assumed): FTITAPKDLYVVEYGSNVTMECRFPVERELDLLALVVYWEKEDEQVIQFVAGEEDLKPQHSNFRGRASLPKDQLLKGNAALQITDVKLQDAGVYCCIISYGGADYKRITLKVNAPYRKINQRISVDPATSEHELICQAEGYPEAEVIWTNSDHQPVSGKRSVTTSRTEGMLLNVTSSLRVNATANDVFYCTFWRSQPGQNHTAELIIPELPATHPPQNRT

- binding result: binds
B1: anti-murine PD-L1 clone 178G7 (antibody, V domains shown)
VH: QVQLQQSGADLAKPGSSVKISCKASGYNFNSYYINWIKQTTGQGLEYIGYINTVSGTTKYSEKFKGKATLTVDKSSSTAFMQLSSLTPDDSAVYYCARGTIVLDDYWGQGVKVTVSS
VL: DIVMTQTPSSQAVSAGEKVTMSCKSSQSLLYNEKKKNYLAWYQQKPGQSPKLLIYWASTRESGVPDRFLGSGSGTDFTLTINSVQAEDLAVYYCQQSYDFPRTFGGGTKLELKR
notes: also called anti-PD-L1 antibody; anti-PD-L1 therapy
